Measured values: the supplement of paper PMC9170038

Test system: MS2 coat protein
Test: apparent KD of MS2 coat protein; designed switch direction (-1 OFF switch, 1 ON switch): -1; higher = weaker reporter binding
Method in brief: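 SNAP-549-labelled MS2 coat protein was titrated, doubling from 0.7 or 1.5 nM to 3 µM, over designed RNA switches transcribed on Illumina chips by stalled E. coli RNA polymerase. Runs were done without input, with 200 uM small-molecule ligand, or with an oligonucleotide input. Apparent KD is the per-design median over clusters of curve-fitted normalised fluorescence.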

[1] = Eterna round: R95, input ligand: microRNA oligo, concentration not stated
[2] = input ligand: microRNA oligo, concentration not stated
[3] = Eterna round: R95, input ligand: FMN 200 uM
[4] = Eterna round: R95, input ligand: none

Sequence	apparent KD of MS2 coat protein [1]	apparent KD of MS2 coat protein (input ligand: FMN 200 uM)	apparent KD of MS2 coat protein (input ligand: none)	other results
UUAUACGUUGAGGAUAUGCGACUUUGUAUAGUUGUAGAAGGCGAUACAUGAGGAUCACCCAUGUUUAUGGGCAU [LRO-Ex6-10] (puzzle: Exclusion 6)	186 nM			
UUAUACGUUGAGGAUAUGCGAUUUAGUAUAGUUGUAGAAGGCGAUACAUGAGGAUCACCCAUGUUUAUGGGCAU [LRO-Ex6-08] (puzzle: Exclusion 6)	268 nM			
UUAUAGUAUGUAGGAUAUCGGUCAGUUUCUGAUCGAGAAGGACAUGAGGAUCACCCAUGUAAGGCUACCGGUUUCUGGUGGCCG [JL ENG1 3.53] (Eterna round: R96, puzzle: Exclusion NG 1)		122 nM	26.1 nM	apparent KD of MS2 coat protein [2]: 16.5 nM
UUAUAUAGUGUGAGGAUAUGCUGGUCCUUGGAUCAGCAGAAGGCACAUGAGGAUCACCCAUGUAGUUUAUUAUU [Mat - Exclusion 4 - JL Mod - D10] (puzzle: Brourd's mod of Exclusion 4)	24.8 nM			
UUAUCCCAUGUGAGGAUAUUAUUUUAAAGAUGCAAUGAGAAGGUACAUGAGGAUCACCCAUGUCCGCGAAAUAU [Eternabot (L2) Solution 57] (Eterna round: R97, puzzle: Brourd's mod of Exclusion 4)		15.4 nM	15.4 nM	
UUAUUAAGUGUGAGGAUAUGCUGGUCCUUGGAUCAGCAGAAGGCACAUGAGGAUCACCCAUGUACUUUAUAAAU [JL bmx4 3.05] (puzzle: Brourd's mod of Exclusion 4)	14.6 nM			
UUAUUACAAGCAAGAUCUCACAUGAGGAUCACCCAUGUGCUCGUCUUAAAAGGUACUGUGACGAAAGUCACGGUACC [Eli 100 v3] (Eterna round: R97, puzzle: Sensor, turn-off variant 1)		16.4 nM	14.9 nM	
UUAUUACGAGGAUAUCGUUUUUAUCACAUGAGGAUCACCCAUGUUGUUUAUGUUUCGUUUCGAGAAGGCGUUUGUU [JR_E5_Sub066] (puzzle: Exclusion 5)	24.4 nM			
UUAUUUCAAGCAAGAUCCUACAUGAGGAUCACCCAUGUGCUCGUCUUAUAAGGUACAGUGACGAAAGUCACAGUACC [Sensor 3, v1 - 000] (puzzle: Sensor v3, turn-off variant 1)	152 nM			apparent KD of MS2 coat protein [3]: 173 nM; apparent KD of MS2 coat protein [4]: 202 nM
UUCACAUGGACAUAAGAUCACAUGAGGAUCACCCAUGUGAAUAACAAGCUUUUUGUUCGUCUUAUGUCCAAUAAUAG [Stov1/14-B2] (Eterna round: R97, puzzle: Sensor, turn-off variant 1)		13.7 nM	13.5 nM	
UUCACAUGGACAUGAGAUCACAUGAGGAUCACCCAUGUGAAUAACAAGCUUUUUGUUCGUCUUAUGUCCAAUAAUAA [Stov1/14-D1] (Eterna round: R97, puzzle: Sensor, turn-off variant 1)		14.1 nM	13.1 nM	
UUCACGUCAGGAUAUCCAAAGUUCCGAAAUAACGGUACUUUGGAGAAGGGACAUGAGGAUCACCCAUGUCCUCG [LRO-Excl4-17-Nando 22 Mod] (Eterna round: R97, puzzle: Exclusion 4)		40.3 nM	22 nM	
UUCAUGUUAGGAUAUUCCGCCACAGAGAAAGACUGUGGAAUGAAGAAGGGACAUGAGGAUCACCCAUGUUCCAA [EX4 A.5] (Eterna round: R97, puzzle: Exclusion 4)		14.2 nM	14.3 nM	
UUCCUACAUGAGGAUCACCCAUGUCAGGAUAUCUCCUCACUGCGCUUGCGCAGUGAAUAGAGAAGGGACAGGCU [JL ViennaUCT Aner mod 1] (puzzle: Exclusion 1)	15.9 nM			
UUCGGCGCAGGAUAUACAGUUUUGUGUUGAAUCGGCGCGAAACAUGAGGAUCACCCAUGUAGAAGGGUGUUGAA [-24.2, -22.3 kcal, A 27%] (Eterna round: R97, puzzle: Exclusion 2)		736 nM	1220 nM	
UUCGUGCAGCUUUGCUGUACGCGUACAUGAGGAUCACCCAUGUAGGAUAUGGUACGCUUUGCGUGCUAGAAGGAUAUGGAGAGG [JL EXNG3 1.34] (Eterna round: R96, puzzle: Exclusion NG 3)		62.9 nM	37.6 nM	apparent KD of MS2 coat protein [2]: 28.7 nM

Sequence	apparent KD of MS2 coat protein [1]	apparent KD of MS2 coat protein (input ligand: FMN 200 uM)	apparent KD of MS2 coat protein (input ligand: none)	other results
UUCGUGCAGCUUUGCUGUACGCGUACAUGAGGAUCACCCAUGUAGGAUAUGGUAGGCAAAGCUUACUAGAAGGAUAUGGUGAGC [Mat - Exclusion NG 3 - Mod of JL - D79] (Eterna round: R96, puzzle: Exclusion NG 3)		30.3 nM	21.4 nM	apparent KD of MS2 coat protein [2]: 15.5 nM
UUCGUGCAGCUUUGCUGUACGCGUACAUGAGGAUCACCCAUGUAGGAUAUGGUAGGCUUUGCUUACUAGAAGGAUAGUGUGAUC [JL EXNG3 1.30] (Eterna round: R96, puzzle: Exclusion NG 3)		137 nM	88.7 nM	apparent KD of MS2 coat protein [2]: 123 nM
UUCUUGCAAGGAUAUGAUUUAAGUAACAUGAGGAUCACCCAUGUUUUUCCGUUGUUAUGUUCAGAAGGUGCGUGAU [JR_E5_Sub021] (puzzle: Exclusion 5)	54.2 nM			
UUCUUGGCAGGAUAUGCUUUUUUAGACAUGAGGAUCACCCAUGUGAUGAUUAUUGGUUUUGCAGAAGGGCCUUAAU [JR_E5_Sub041] (puzzle: Exclusion 5)	49.4 nM			
UUGAAGUAAGGAUAUACAUGAGGAUCACCCAUGUAAAGGAAAGUAAUGGGAGUAGGAAGUAGAAGGUACGAGGA [JR_Exclu3_Sub062] (puzzle: Exclusion 3)	66.6 nM			apparent KD of MS2 coat protein [3]: 49 nM; apparent KD of MS2 coat protein [4]: 134 nM
UUGACCCACGUCAGGAUAUCAAGAAAAGAGGCUCUUGAGAAGGGACAUGAGGAUCACCCAUGUAAGAAAUAAAU [Qumabibe] (puzzle: Brourd's mod of Exclusion 4)	28.4 nM			apparent KD of MS2 coat protein [3]: 101 nM; apparent KD of MS2 coat protein [4]: 34.6 nM
UUGAUACAUACCUCCAUAAACAUGAGGAUCACCCAUGUAAGUGAGGAUAUAGAUUGAUUAGUAUACUAGAAGGCACUUAGAUAU [JR_ExcNG3_Sub044] (Eterna round: R96, puzzle: Exclusion NG 3)		11.6 nM	13.3 nM	apparent KD of MS2 coat protein [2]: 8.91 nM
UUGAUGUCAUCAGGAUAUAGUAUUUAAGACAUAUAUUUUUUCAAACAUGAGGAUCACCCAUGUCGCUAGAAGGGAUUAUAGAUU [JR_ExcNG2_Sub082] (Eterna round: R96, puzzle: Exclusion NG 2)				apparent KD of MS2 coat protein [2]: 29.6 nM
UUGCAGUCGUCAGGAUAUAGUAUUACGGCCUUUCAUUUCUUCAUACAUGAGGAUCACCCAUGUCGCUAGAAGGGCUUCUCGCUU [salish99_ExNG2_r04_109] (Eterna round: R96, puzzle: Exclusion NG 2)		15.3 nM	17.6 nM	apparent KD of MS2 coat protein [2]: 14.6 nM
UUGCCACAUGAGGAUCACCCAUGUGAGGAUAUGGCCCGCCCGGCGUGUGCUGGUUUUGUCAGAAGGCGCGUGGG [salish99_ex1_r4_029] (Eterna round: R97, puzzle: Exclusion 1)		52.4 nM	27.9 nM	
UUGCCACAUGAGGAUCACCCAUGUGAGGAUAUGGCCUGUUUGGAGUGUGCUGGUUCUGUCAGAAGGCGCGUGGG [salish99_ex1_r4_033] (Eterna round: R97, puzzle: Exclusion 1)		49.5 nM	33.6 nM	
UUGCUCGUCUUGCUUCCUAACAUGAGGAUCACCCAUGUCGACGGUGAGACGCAAGAGCCAUCUCGCCGUUGAUCGUC [Eternabot (Original) Solution 4] (Eterna round: R97, puzzle: Sensor, turn-off variant 1)		134 nM	159 nM	
UUGGUGUCAGGAUAUGCACAGGUCGCACAAAUUGCAGCCUAGCAGAAGGGACAUGAGGAUCACCCAUGUACUCU [EX4 B.21] (Eterna round: R97, puzzle: Exclusion 4)		30 nM	18.8 nM	
UUGGUGUCAGGAUAUGCUUAAUAUAUUUUAUUAUAAUAUAUACAUGAGGAUCACCCAUGUAGAAGGGACAUUGU [LRO-Excl2-07-Fireball XL5] (Eterna round: R97, puzzle: Exclusion 2)		30.2 nM	45.8 nM	
UUGUAGUUUGUAGGAUAUGGUUAUGUAUGUAAUCUAGAAGGACAUGAGGAUCACCCAUGUGGAGGUAAGUUGGGAAGAAGUAAU [random1] (Eterna round: R96, puzzle: Exclusion NG 1)		55.6 nM	56.4 nM	apparent KD of MS2 coat protein [2]: 30.8 nM
UUGUGCACGCUGCGGUCCUACAUGAGGAUCACCCAUGUGGUCUGGUGGCGUGGGUCACCGGACUUGGCUCGUCUUGA [salish99_S_TOV1_R5_061] (Eterna round: R97, puzzle: Sensor, turn-off variant 1)		52.7 nM	57.8 nM	
